Data published in publication PMC2779222 (The Journal of Cell Biology, 2009).

B1: CEACAM1-4ΔCyto–YFP (domain or fragment, rat, UniProt P16573 35-448, looked up)
chain: QVTVDAVPPNVVEEKSVLLLAHNLPQEFQVFYWYKGTTLNPDSEIARYIRSDNMSKTGPAYSGRETIYSNGSLFFQNVNKTDERAYTLSVFDQQFNPIQTSVQFRVYPALQKPNVTGNNSNPMEGEPFVSLMCEPYTNNTSYLWSRNGESLSEGDRVTFSEGNRTLTLLNVRRTDKGYYECEARNPATFNRSDPFNLDVIYGPDAPVISPPDIYLHQGSNLNLSCHADSNPPAQYFWLINEKLQTSSQELFISNITTNNSGTYACFVNNTVTGLSRTTVKNITVFEPVTQPSIQITNTTVKELGSVTLTCFSKDTGVSVRWLFNSQSLQLTDRMTLSQDNSTLRIDPIKREDAGDYQCEISNPVSFRISHPIKLDVIPDPTQGNSGLSEGAIAGIVIGSVAGVALIAALAYFLY

Columns and labels:
ΔN–CEACAM1-3L–YFP (rat) = ΔN–CEACAM1-3L–YFP (rat) (UniProt P16573); test: cross-linking
cross-linking = target: the molecule itself; test: cross-linking

Molecule	stoichiometry N (ΔN–CEACAM1-3L–YFP (rat))	stoichiometry N (cross-linking)
ΔN–CEACAM1-3L–YFP (from UniProt P16573 35-519) (domain or fragment)	2	
B1		2
